Read-outs that look alike come from different tables or passages of the source. Ends that are not written are not given here. * marks the point of attachment. FITC = O=C1OC2(c3ccc(O)cc3Oc3cc(O)ccc32)c2ccc(NC(=S)*)cc21

Common to all, as to test: fluorescence polarisation
On the technique in general: Fluorescence polarisation rises when a labelled molecule tumbles more slowly, as on binding a larger partner.

The target of experiment [1] is Human P300 KIX domain (EP300 KIX domain) (human) (UniProt Q09472).
Experiment [2] has as its target CBP KIX domain (CREBBP KIX domain) (human) (UniProt Q92793).
For experiment [3], the target named is Human P300 KIX domain (EP300 KIX domain) (human) (UniProt Q09472). This is another data set of the same source.
In experiment [4] the target is CBP KIX domain (CREBBP KIX domain) (human) (UniProt Q92793). This is another data set of the same source.
Experiment [5] deals with Human P300 KIX domain (EP300 KIX domain) (human, UniProt Q09472 565-652).
In experiment [6] the target is CBP KIX domain (CREBBP KIX domain) (human, UniProt Q92793 585-672).
CBP KIX domain (CREBBP KIX domain), sequence (Q92793 585-672): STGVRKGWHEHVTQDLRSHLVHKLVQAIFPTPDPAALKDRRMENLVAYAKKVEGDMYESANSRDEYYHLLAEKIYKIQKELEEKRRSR

Human P300 KIX domain (EP300 KIX domain), sequence (Q09472 565-652): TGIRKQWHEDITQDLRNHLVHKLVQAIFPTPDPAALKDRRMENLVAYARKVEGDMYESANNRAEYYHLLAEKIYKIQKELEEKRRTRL
Human P300 KIX domain (EP300 KIX domain) (human), sequence (Q09472 565-652): as above
CBP KIX domain (CREBBP KIX domain) (human), sequence (Q92793 585-672): as the sequence (Q92793 585-672) above

As for “MLL28MYB30 (M/M) fusion peptide, purified”, the IC50 in experiment [1] stood at 8.5 µM; in experiment [2], 22 µM; in experiment [3] it was 8.3 µM; in experiment [4], 23 µM.

B1: FITC-labelled MYB peptide (MYB25) (peptide)
peptide: {FITC}-KEKRIKELELLLMSTENELKGQQAL
In the case of B1, in experiment [5], the Kd was 3.8 ± 0.2 µM.

B2: Rhodamine-labelled MLL peptide (MLL25) (peptide)
peptide: SDDGNILPSDIMDFVLKNTPSMQAL
modifications: also: rhodamine label, position not given here
As to B2, the equilibrium dissociation constant (Kd) in experiment [5] worked out at 40 ± 14 µM; in experiment [6], 94 ± 11 µM.

In general, IC50 refers to the concentration needed to halve the response being measured. Lower therefore signals higher potency. The Kd is the free concentration of one partner at which half of the binding sites on the other are occupied at equilibrium, for simple one-to-one binding. A lower Kd goes with higher affinity.
